Drawing on patent US20220306764A1 (NATIONAL INSTITUTE OF BIOTECHNOLOGY IN THE NEGEV, published 2022), this text covers Kd, koff and kon for four molecules.

The chains are these.
B1: NB8 (VHH)
VHH: QVQLQESGGGSVQAGGSLRLSCARSGWPYSTYSMNWFRQAPGKEREAVAGISSTMSGIIFAESKAGQFTISQDNAKNTVYLQMNNLKPEDTAIYYCAARRDYSLSSSSDDFDYWGQGTQVTVSS
notes: also called nanobody 8; PDB 6XXO; not shown: His tag (NBs purified on Ni-NTA and detected with anti-His)
B2: NB37 (VHH)
VHH: QVQLQESGGGSVEAGGSLRLSCARSGWPYSTYSMNWFRQAPGKEREAVAGISSTMSGIIFAESKAGQFTISQDNAKNTVYLQMNNLKPEDTAIYYCAARRDYSLSSSSDDFDYWGQGTQVTVSS
notes: also called nanobody 37; PDB 6XXP; not shown: His tag (NBs purified on Ni-NTA and detected with anti-His)
B3: NB13 (VHH)
VHH: QVQLQESGGGSVQTGGSLRLSCAASGYTASFSWIGYFRQAPGKEREGVAVINVGVGSTYYADSVKGRFTISRDNTENTISLEMNSLKPEDTGLYYCAGSLRWSRPPNPISEDAYNYWGQGTQVTVSS
notes: also called nanobody 13; not shown: His tag (NBs purified on Ni-NTA and detected with anti-His)
B4: NB7 (VHH)
VHH: QVQLQESGGGSVQAGGSLRLSCTAPGYTDSNYYMSWFRQAPGKEREWVAGVNTGRGSTSYADSVKGRFTISQDNAKNTMFLQMNSLKPEDTAIYYCAVAACHFCDSLPKTQDEYILWGQGTQVTVSS
notes: also called nanobody 7; anti-PSMA NB7; not shown: His tag (NBs purified on Ni-NTA and detected with anti-His)

For the experiment, the target named is T1, purified extracellular domain of PSMA (prostate-specific membrane antigen), residues 44-750 (UniProt Q04609 44-750).
T1 construct: range 44-750; The limits 44-750 are stated for the immunogen; Docking used PDB 1Z8L; also called soluble PSMA; monomeric PSMA
T1 sequence (Q04609 44-750 limits assumed): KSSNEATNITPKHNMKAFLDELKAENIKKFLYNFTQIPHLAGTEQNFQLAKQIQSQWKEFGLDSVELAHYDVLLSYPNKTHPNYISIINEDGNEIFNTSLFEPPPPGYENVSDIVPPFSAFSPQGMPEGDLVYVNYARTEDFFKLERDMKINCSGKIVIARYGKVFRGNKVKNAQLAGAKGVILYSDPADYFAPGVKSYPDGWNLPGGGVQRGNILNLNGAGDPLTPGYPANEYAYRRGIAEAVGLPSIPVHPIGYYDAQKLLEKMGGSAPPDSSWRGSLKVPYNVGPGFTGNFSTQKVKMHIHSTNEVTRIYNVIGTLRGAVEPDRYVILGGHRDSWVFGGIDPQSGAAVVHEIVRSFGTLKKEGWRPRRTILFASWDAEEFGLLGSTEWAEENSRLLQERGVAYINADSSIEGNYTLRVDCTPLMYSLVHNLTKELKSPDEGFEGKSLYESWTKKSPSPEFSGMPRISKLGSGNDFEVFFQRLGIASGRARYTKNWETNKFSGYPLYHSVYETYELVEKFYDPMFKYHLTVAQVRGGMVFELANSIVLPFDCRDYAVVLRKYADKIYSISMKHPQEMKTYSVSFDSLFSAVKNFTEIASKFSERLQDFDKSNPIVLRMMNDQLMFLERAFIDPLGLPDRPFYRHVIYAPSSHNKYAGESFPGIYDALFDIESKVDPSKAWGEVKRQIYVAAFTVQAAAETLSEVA
In words: SPR (ProteOn XPR36), NB immobilised, soluble PSMA as analyte, 1:1 Langmuir, 25 C. On the procedure: The bottom curve in each sensogram represents the lowest concentration, while the top curve represents the highest concentration. A FACS analysis (n=3) was used to determine the binding of these NBs (0.1-1,000 nM) to PC3-PIP (PSMA⁺) cells (1E) and to PC3-flu (PSMA⁻) cells (1F). For convenience, each fluorescence value was normalized to the fluorescence values at the highest and lowest concentrations of PC3-PIP cells.
The affinity of each NB to PSMA was determined by using surface plasmon resonance (SPR) spectroscopy on a ProteOn XPR36 chip (Bio-Rad, CA). The chip was activated by using sulfo-NHS (0.1 M N-hydroxysuccinimide) and EDC [0.4 M 1-ethyl-3-(3-dimethylaminopropyl)-carbodiimide]. Each NB (0.2 μg) was immobilized in a 10 mM sodium acetate buffer, pH 5.0, at a flow rate of 30 μl/min. Bovine serum albumin (BSA) (3 μg) was immobilized on the chip as a negative control. Unbound esters were deactivated with 1 M ethanolamine HCl at pH 8.5. […] During this time, the association between the NBs and PSMA was measured. The dissociation was measured while flowing 50 μ1/min PBST (namely, a phosphate-buffered saline with 0.005% Tween). For each protein complex, a binding sensogram was generated by subtracting the values of the PSMA response to BSA from those of the PSMA response to the NBs. The dissociation constant (KD) was determined from the Langmuir 1:1 kinetic model. The temperature throughout the binding measurements was set at 25° C.
B1 yielded a Kd of 6 nM, a koff of 0.00012 s⁻¹ and a kon of 20000 M⁻¹ s⁻¹.
For the molecule B2, the affinity, expressed as Kd, was 3.4 nM; the koff was 7.5e-05 s⁻¹; the kon came to 22000 M⁻¹ s⁻¹.
B3 yielded a Kd of 0.6 nM, a koff of 2.2e-05 s⁻¹ and an on-rate constant (kon) of 36000 M⁻¹ s⁻¹.
The like results for B4 were, in that order, 0.055 nM, 3.9e-05 s⁻¹ and 710000 M⁻¹ s⁻¹.

By Kd is commonly meant a measure of binding affinity in units of concentration. Low values mean higher affinity, high ones lower affinity. Broadly, the koff is the rate constant with which the complex falls apart. A high value points to a short-lived complex. As usually defined, the kon is the rate constant with which the complex forms. A low value points to slower complex formation.
